Measurements published in patent US20260201035A1 (published 2026).

Columns and labels:
Assay in all cases: fluorescence microscopy, LentiX cells co-expressing Lck (FIG. 38)
[1] = target: T1, GFP-tagged PD1, wildtype PD1 (Y223/Y248) (UniProt Q15116 25-288, tyrosine phosphorylation by co-expressed Lck (implied, not measured in this experiment))
T1 construct: whole, on cells; In LentiX cells co-expressing Lck; not shown: GFP tag

[2] = target: T2, GFP-tagged PD1, Y223/F248 PD1 (UniProt Q15116 25-288)
T2 construct: whole, on cells; In LentiX cells co-expressing Lck; not shown: GFP tag

[3] = target: T3, GFP-tagged PD1, F223/Y248 PD1 (UniProt Q15116 25-288)
T3 construct: whole, on cells; In LentiX cells co-expressing Lck; not shown: GFP tag

[4] = target: T4, GFP-tagged PD1, F223/F248 PD1 (UniProt Q15116 25-288)
T4 construct: whole, on cells; In LentiX cells co-expressing Lck; not shown: GFP tag

binding result [1]: binds | binding result [2]: binds | binding result [3]: binds | binding result [4]: binds
B1: mCherry-tagged Binder-NT7 (designed binder)
chain: ERFDSLTDLVEHYKKNPMVETLGTVLQLKQPLGGSGGGWFHGHLSGKEAEKLLTEKGKHGSFLVRESQSHPGDFVLSVRTGDDKGESNDGKSKVTHVMIRCQELKYDVGGGGGSQLQESGGGLVQAGGSLRLSCAASGYIFSRWYMGWYRQAPGKEREFVAGIDQGSITYYADSVKGRFTISRDNAKNTVYLQMNSLKPEDTAVYYCAAVAWAGYPWYYKHAYWGQGTQVTVSS
notes: Expressed in LentiX cells co-expressing Lck; not shown: mCherry tag
